{
  "source": "patent US20110086026A1",
  "about": "(ROCHE PALO ALTO, published 2011)",
  "binders": {"B1": {"name": "HuMab LC5002-005 (antibody, V domains shown)", "VH": "EVQVLDSGGGLVQPGGSLRLSCTASGFTFRLYTMSWVRQTPGRGLEWVSGISGSGLSTYFADSVKGRFTISRDNSKNTVYLQMNSLRAEDTAVYYCAKEGDWIYFDSWGQGTLVIVSS", "VL": "DIQMTQSPSSLSASVGDRVTITCRASQGISSWLAWYQQKPEKAPKSLIYAASSLQSGVPSRFSGSGSGTDFTLTISSLQPEDFATYYCQQYNSHPPTFGQGTKLEIK", "notes": "Only the variable domains are tied to this antibody; also called hu-MAB<h-IL-13Ralpha>LC.5002-005 (DSM ACC2711)"}},
  "key": {"[1]": {"target": "FcγRIIIa (CD16) on Natural Killer (NK) cells (UniProt P08637)", "sequence (P08637 17-254 limits assumed)": "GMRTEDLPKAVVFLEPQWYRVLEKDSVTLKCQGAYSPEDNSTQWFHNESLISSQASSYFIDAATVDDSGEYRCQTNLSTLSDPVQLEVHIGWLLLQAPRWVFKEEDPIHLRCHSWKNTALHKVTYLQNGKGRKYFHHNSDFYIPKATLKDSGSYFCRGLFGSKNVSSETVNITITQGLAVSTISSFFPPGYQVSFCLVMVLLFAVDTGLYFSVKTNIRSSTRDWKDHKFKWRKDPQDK", "assay": "FACS on NK cells in PBMC, 20 µg/ml, with 20 µg/ml of the blocking anti-CD16 clone 3G8 as competitor"}, "[2]": {"target": "T1, extracellular domain of hIL-13Rα1 cleaved from hIL-13Rα1:hFc chimeric protein (human, UniProt P78552 22-343)", "T1 construct": "extracellular domain; also called Cleaved hIL-13Rα1 molecules (MW 40 kDa)", "T1 sequence (looked up)": "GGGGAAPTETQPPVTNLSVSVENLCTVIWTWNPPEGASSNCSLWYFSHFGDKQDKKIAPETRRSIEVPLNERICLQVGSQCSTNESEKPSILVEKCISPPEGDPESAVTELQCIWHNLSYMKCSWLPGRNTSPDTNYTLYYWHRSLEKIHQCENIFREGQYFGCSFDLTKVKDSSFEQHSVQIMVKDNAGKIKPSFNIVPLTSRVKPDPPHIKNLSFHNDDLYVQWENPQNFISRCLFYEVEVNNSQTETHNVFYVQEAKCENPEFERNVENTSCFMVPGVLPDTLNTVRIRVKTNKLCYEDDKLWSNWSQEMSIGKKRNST", "assay": "SPR Biacore 3000, CM5 chip, HuMab captured by anti-hFcγ, cleaved hIL-13Rα1 as analyte, bivalent analyte model", "method": "(§1) In these experiments, the affinity of the original IgG1 derived from hybridoma was compared with the affinities of the recombinant variant IgG1-Ala-Ala. For interaction analysis, a Biacore 3000 instrument was used. Running and reaction buffer was HBS-P (10 mM HEPES, 150 mM NaCl, 0.005% polysurfactant P, pH 7.4) at 25° C. Capturing antibody molecules (anti-hFcγ) were amine-coupled at a concentration of 20 μg/ml at a flow rate of 5 μl/min for 20 minutes. HuMabs were injected at concentrations of 10 μg/ml at a flow rate of 10 μl/min for 1 minute. Cleaved hIL-13 Rα1 molelcules (analyte) were injected for five minutes at eight concentrations between 1.56 nM and 200 nM and washed with HBS-P for five minutes. Regeneration of the surface was accomplished by two injections of 100 mM HCl for 1 min each. The chip, assay format and sequence of injections and kinetic data correspond to the description in Table 4. Kinetic data were calculated by fitting kinetic data to a bivalent analyte binding model."}, "[3]": {"target": "T1, extracellular domain of hIL-13Rα1 …", "assay": "SPR Biacore 3000, CM5 chip, HuMab captured by anti-hFcγ, cleaved hIL-13Rα1 as analyte, bivalent analyte model (kd1)", "method": "as §1"}},
  "data": [
    {"binder": "B1", "values": [
      {"measurement": "Bmax (MFI)", "setting": "[1]", "result": 260, "unit": "MFI"},
      {"measurement": "Kd", "setting": "[2]", "result": 2.7, "unit": "nM"},
      {"measurement": "koff", "setting": "[3]", "result": 0.00036, "unit": "s⁻¹"}
    ]}
  ]
}
